This data set is described as follows: label from the status in PepcDB records.

For “MNCIIAQSGGPTSVINASVYGLVKANKKLNLYENVYGGLNGIEGILNKKIINLSDLDELQLERFKNSPASGLGSCRYKLKPLSESEDEYLKLLDILNSLNIKAFFYVGGNDSMDTTAKLNAFAKAKNIDIKFFGIPKTIDNDLMHTDHTPGFGSAAKFISTAVLETYLDSKVYTNNGIFIIETMGRDTGWLAASGALATINGNKCADLVYLPERAFSVQSFLTDVARIFKEKKHVYIVASEGLKDENGKFLTETAPNDDSFGHAQLGGVGAYLKNLIIQASITHRVKSLELNTLQRCSMHASSKIDVNEAVMVGQAALEASINSEGGYMVAIRRDSSFPYKSSTFLIEADKIANNIKYFPSEWINEEGNNITEEGLLYLKPLISDFEDRDSLPLYHSFVL”, the protein production result is on record as “failed”.

Turning to “MNCKFEGSKVFFTSDTHFYHGNIIRFCNRPFKDVGMMNETIISNWNNTVGLDDIVFHLGDFCLGGSAEWTKILDRLNGKIYLILGNHDLKNLRQGYVDRFEHLAMQMHIEVNKQKIYLNHYPFLCFDGGYKDVWQLFGHVHTRNNNTGIDATRLQHLYPTQYDVGVDNNNFMPVSFAQVKTIIEKQIKQSKMEELEHHHHHH”, the protein production entry is given as “not failed”.

“MNDADSLQDYQRVRQQAIRSLFEIVEGSSEGTVIVDREARIVWINQRYAQRFGLADPAQAIGRPCESVIPGSLLREVVGSGKPILLDMMDSAKDPLVVMRLPIHDDAGEVIGAIGFALLDELRSLSPLVTRYLSMQRELASTRSQLQARQAKYSFSHFVGTSPVSLEVKRRARRGAASEAPVLLLGETGTGKELLAHAIHSASPRAHKAFVSVNAAAIPESLLEAEFFGTAPGAFTGAERKGRPGKLQVAQGGTLFLDEIGDMPLALQGKLLRVLQEKEFEAVGSNEVIRSDIRLVAATSIDLQQAMREGRFRADLYYRLNVLPIEIPPLRQRLDDLPALCESILDSLDHGRLHELGGDALALLARHAWPGNVRELRNVLERALLLADQRLLDAAALGAALGPLQPLPELPRAADDRPVGDFQQAREAFERDLIGRALAQSAGNVVEAAKRLGLGRSTLYKKIVALGMRLDSGTRLEIETN”: the protein production result is on record as “failed”.

As for “MNDFKGWETRSYLFLALMVGVQLVAFAINPSNWITLVGGLAGIICVNLIAQGKVSNYIFGLISAVIIGYFGLVTRVYAEVLLQSFYIIMDITGLYAWLRASEDGSGQVTEVKVLKGIQWLYAFFTWLLIGVAAYILLGFVNDAQQTLDAITFSVSATGMLLMIKRYQSQFVFWLLGNIFSILLWFRAGTHAGGDYAIFVMYCMYTFNSIFGMFNWLKIKNKMEKNR”, the protein production result is recorded as “failed”.

On to “MNDHTAAIAAHFDQLAPNLDRWRRRNRTYYRDLEKLHRFWIPTGSRVLQVGSGLGDLLATVEPSFGIGIDVSPQAVAIAQQRHPQLQFHCLAAEELTPEAIGNPEPFDAIILTGVLSYLTDIQVVLEQLQAFCHPRTRLILGFHNFLWQPLLTAAEKVGQRSPQPPESWLGMQDVLNLLTLTGYEPIKQGLEHHHHHH”, for which the protein production entry was “not failed”.

Turning to “MNDNYEVFAIKYATYQQRRRNENFLPADEHDAGLMPLDYYVWLLKSPARTILVDTGFNPPEAAARNREQSRCPIEALRLLDVAPDDIDDVIITHLHYDHAGNLEKIPRARFHIQDKEVEFATGRCMCHAPLRFAYSPADVSNFIHKLYAGRVVFHDGAGVVAPGVEVLHVGGHTKGLQAVRVMTQRGWVVLASDASHFYENLEAARPFPLVADVAEMLDGFERLVRAAGSPSHVVPGHDPAVMTRYPTHPRDPQGIALLHLPTLA”, the protein production result is recorded as “failed”.

For “MNDPVDDDAEPTGNHADGVTVADLIAKVAGSDGATPRRSRRRRAAEPDPEPEFEAQAEPAPKPTPEPEILPVAPEPPASADPTEVLQAIRYDEYPGDHAGEYPGDHPDAAYAGAADPNLDAIFEPAFAPMPFAGVTAAHPDLDSCDTEIIPAVPAADEHADLPDTHRDSWRRRTRPQHAGTDDFDEPHRRHPNRKAMIVGRAAAAMIAALTLVLTGGAWQWQSSKNDSLNKVAALDLGSRDILDPNAQFGDENFLIVGMDSRFGENSQMGAGSTDDADGARSDTIMLVNIPASRERVVAVSFPRDLAITPMKCEPWDPETGTYGPIWDEASGTYGPDEVYTETKLNSAFAFGGPKCLVKVIQKISGLSVNRFMAVDFAGFSKMVDALGGVEVCSTTPLEDYELGTVLANAGRQIVDGHTALNYVRARQVTTEYNGDYGRIKRQQLFLSSLLRSLISKDTFFSLSKLNNVVNMFIADSYVDNIKTKDLVDLGQSVQGVNAGRITFVTIPTTGYADEWGNEQPRMDDVRALFDAIINDDPLPGEKNPDNTPVPGTPESTTNTAQAPQSTSPAPQPAHAAPAPGSAEMVDTVTTEPQQVTVKVSNSTGQSGLAATAAGELEQHGFNVTTPDDYPGPLDATTVFFSPGNEEAAATVASSFSNAAIERVAGLGDVVQVVLGTDFMAVNPPSPSGSAIQVKLVRGTSSTPTQLPEDLSVTNAADATCE”, the protein production entry is on record as “failed”.

For “MNDSAPRRVRVRAPELIGKGGWLNTGDKQYTLADLRGRIVVLDFWTFCCINCLHVLDELRELEEKHRDTVVIIGVHSPKFVHEAEHQAVVDAVERYGVEHPVLDDPELATWKQYAVRAWPTLVVIDPEGYVVAQHAGEGHAHAIAALVAELEAEHEAKGTLRRGDGPYVAPEPEPTVLRFPGKALLLPSGNFLVSDTTRHQLVELAADGESVVRRIGSGIRGFADGPADAASFSEPQGMTLLDEDVVVVADTVNHALRRLDLATGEVTTLAGTGRQWWQGSPASGPAREVDLSSPWDVAVFGGRVWIAMAGGAPAVDVRPGGGDGRGRGGHDERGAGRRTGLEHHHHHH”, the protein production result was “not failed”.

In the case of “MNDTPDDTFVSGYLLYLLAASSEEASAQFHDHIRAQGLRVPEWRVLACLVDNDAMMITRLAKLSLMEQSRMTRIVDQMDARGLVTRVADAKDKRRVRVRLTDDGRALAESLVASARAHETRLLSALADTDAARIKGVLRTLLDVLDRPRESR”, the protein production result was “not failed”.

In the case of “MNDVASTKSRVAAVSVVASATMAAAKFAVGIAIGSLALISEALHSSIDLVATIITWFVVRISDRPADDAHHYGHGKIESLSALGVIAMLYVLAGGILVEAYSRLREGAAPPTFSYLAFVILGVDIVVNLWRAWALHRTAVATKSQALAADALHFASDVLGSFAVIAGLALAAAGFHWGDAAAAIGVAVMISLLGLRLGRSTIQTLLDRAPEGVSDKAREAIGAVPGVVGVERLRARMVGPTHFIDALVEVPRTYPIDRIDEIKRKAQESMSEIFGDADLTFTAIPVARDNESVRERIMVIARNSGLAVHHVTVHDLGGHKLIVSIDLEVDGNMPLIEAHDIAHKLEDHIREDFGADVEVDTHIEPLEPELPQGSDAEPARVEEIRLALRRLTHDGAIHDVHSVRVRDTDAGEIVNFHCYADPSMSVISVHDHVDEIERKLRAKFPSVKRVISHAEPPNAD”, the protein production entry is reported as “failed”.

Take “MNEADYLRLLTRQAEQANDFLSNARKWDRERWVCQRFLEALNVPYRQEDFAAPGEQPPDVLFKGAGFEVFFVLDEGRRLNEEWREELTRRRQAVSLRQLIRREERPQRIAAAELQARLAPTLRKKAHNYSERGIDHGELDLLAFVNLKRAVPDFNTPFPPPTEYLRQGWRSLSMVGPTFARVLFAHSGAPEFLRANLGRSILFDAGVGL”: the protein production entry is recorded as “not failed”.

As for “MNELDVREFYQKQFELSNYDINTERWLEQLAKEVKEQIGYPFQSMLELGAGNGGFARAMSNLNVKMTTVELVPELVMFAKEHSTNDIEVHCADFYKINFEEKFDIVTYLDGFGVGTDEEQLFLLKRIYNWLKDDGCALIDIYQPLYWEKANGQEMPIYSAMRKYEYDSENARMLDHWWEKDSSNDIVTQSLRCYTIDEISNLCAEARFSIVGIFPGGAYDFEERKYKEQASLNECLSYRIKVKKSKD”, the protein production result was “failed”.

As to “MNEPQAFAQTDAEWLASINRARDWFQGPLGSLMLAEERRLLCDELTRYFGGYLVHYGPHAELPPSTGQIQRGVRLGPPLPGVDIACEEGAWPLSEHAADVVLLQHGLDFCLSPHRLLREAARTVRPGGHLLLIGINPWSLWGIRHYFAGDALRQARCIPPSRACDWLNLLGFALEKRRFGCYRPPLASAAWQSRLARLERWGDAWQSSGAGFYLLVARKLVVGLRPLRQSKREPRGQLVPMPVAKVSRRDSEI”, the protein production entry was “failed”.

Take “MNEREAKMYELEFPAPDVASDGVDGPTLIIAMQGYADAGLAVEASADHLLSALEHRPVAVFNNDELIDYRSRRPAVTIDHNIVVDANELKLSMDVLRDSNGTPFLLLSGPEPDLRWDAFSQAVADLVRRFGVRRTICIYAAPMTVPHTRPLIVSAHGNSLDLIKHHFSIDSKVTIPGSASLHIERLLNKNNIDVAGYTAHVPHYLSASAYPLATLKLLEAITTSTNLDFPLKTLEADAQKTALQVEEQVAGSQEIESVVKILEQQYDE”: the protein production entry was “failed”.

The record behind these values is a protein production outcome set (Wang et al. 2014).
